Experimental findings from US20260242732A1 are described below.

Read-outs that look alike come from different tables or passages of the source.

In assay [1] the target is recombinant human P-selectin (human) (UniProt P16109).
The target is the same in assay [2]. The source holds these as a separate data set.

Chain of UniProt P16109 (P16109 42-771 limits assumed): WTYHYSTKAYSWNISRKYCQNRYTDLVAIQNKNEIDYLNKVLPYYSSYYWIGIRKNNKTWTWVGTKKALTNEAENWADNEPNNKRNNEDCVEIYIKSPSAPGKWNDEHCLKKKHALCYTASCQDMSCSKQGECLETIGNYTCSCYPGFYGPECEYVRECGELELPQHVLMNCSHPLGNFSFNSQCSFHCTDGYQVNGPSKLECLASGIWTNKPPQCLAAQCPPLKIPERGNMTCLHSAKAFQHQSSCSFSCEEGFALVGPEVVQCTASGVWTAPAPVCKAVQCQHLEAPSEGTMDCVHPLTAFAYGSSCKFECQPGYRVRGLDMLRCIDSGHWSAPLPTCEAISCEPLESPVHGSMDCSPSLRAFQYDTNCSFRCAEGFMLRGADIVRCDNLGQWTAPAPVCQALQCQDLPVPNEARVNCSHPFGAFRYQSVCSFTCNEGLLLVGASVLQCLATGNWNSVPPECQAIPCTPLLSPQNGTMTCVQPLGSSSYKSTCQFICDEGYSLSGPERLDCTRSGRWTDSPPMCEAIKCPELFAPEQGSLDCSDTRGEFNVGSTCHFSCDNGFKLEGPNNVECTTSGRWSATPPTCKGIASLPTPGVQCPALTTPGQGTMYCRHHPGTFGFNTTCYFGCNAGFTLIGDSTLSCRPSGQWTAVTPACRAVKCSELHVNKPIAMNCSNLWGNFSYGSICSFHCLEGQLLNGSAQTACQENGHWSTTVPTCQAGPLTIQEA

B1: LH (Crizanlizumab) scFv synNotch receptor (receptor, part only; not given: Myc tag, Notch core, Gal4, part only)
chain, part: DIQMTQSPSSLSASVGDRVTITCKASQSVDYDGHSYMNWYQQKPGKAPKLLIYAASNLESGVPSRFSGSGSGTDFTLTISSLQPEDFATYYCQQSDENPLTFGGGTKVEIKRGGGGSGGGGSGGGGSQVQLVQSGAEVKKPGASVKVSCKVSGYTFTSYDINWVRQAPGKGLEWMGWIYPGDGSIKYNEKFKGRVTMTVDKSTDTAYMELSSLRSEDTAVYYCARRGEYGNYEGAMDYWGQGTLVTVSS
For the molecule B1, in assay [1], the Freq. of mCherry+ (BFP+ cells) at 1 ng/uL rhp-selectin turned out to be 2.1%, the Freq. of mCherry+ (BFP+ cells) at 10 ng/uL rhp-selectin came out at 13.2%, the Freq. of mCherry+ (BFP+ cells) at 25 ng/uL rhp-selectin came to 15.6% and the Freq. of mCherry+ (BFP+ cells) at 50 ng/uL rhp-selectin was 15.8%. The Freq. of mCherry+ (BFP+ cells) at 100 ng/uL rhp-selectin in assay [1] amounted to 12.1%.

B2: HL (Crizanlizumab) scFv synNotch receptor (receptor, part only; not given: Myc tag, Notch core, Gal4, part only)
chain, part: QVQLVQSGAEVKKPGASVKVSCKVSGYTFTSYDINWVRQAPGKGLEWMGWIYPGDGSIKYNEKFKGRVTMTVDKSTDTAYMELSSLRSEDTAVYYCARRGEYGNYEGAMDYWGQGTLVTVSSGGGGSGGGGSGGGGSDIQMTQSPSSLSASVGDRVTITCKASQSVDYDGHSYMNWYQQKPGKAPKLLIYAASNLESGVPSRFSGSGSGTDFTLTISSLQPEDFATYYCQQSDENPLTFGGGTKVEIKR
Consider B2, for which, in assay [2], the Freq. of mCherry+ (BFP+ cells) at 1 ng/uL rhp-selectin came out at 16.2%, the Freq. of mCherry+ (BFP+ cells) at 10 ng/uL rhp-selectin worked out at 33%, the Freq. of mCherry+ (BFP+ cells) at 25 ng/uL rhp-selectin was determined as 32.2% and the Freq. of mCherry+ (BFP+ cells) at 50 ng/uL rhp-selectin came out at 25.4%. Moreover, the Freq. of mCherry+ (BFP+ cells) at 100 ng/uL rhp-selectin in assay [2] worked out at 18.4%.
